Assay results published in PMC6127865.

Target: T1, HisMBP-CDX2ΔCTD R214N (UniProt Q99626 1-245, R214N)
T1 sequence: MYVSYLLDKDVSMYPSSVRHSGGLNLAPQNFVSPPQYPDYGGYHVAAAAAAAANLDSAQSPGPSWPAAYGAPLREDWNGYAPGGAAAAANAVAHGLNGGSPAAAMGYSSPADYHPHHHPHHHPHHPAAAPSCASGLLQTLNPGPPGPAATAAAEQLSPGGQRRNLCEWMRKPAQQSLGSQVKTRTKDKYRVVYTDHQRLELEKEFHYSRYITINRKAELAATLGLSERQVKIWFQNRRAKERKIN
Experiment: EMSA

B1: TP5921/TP5922 CDX2 consensus site duplex (dsDNA)
DNA 1: TAATCTCTCTGTTTATAGCTCTGACCT
DNA 2: AGGTCAGAGCTATAAACAGAGAGATTA
B1: no binding.
